In PMC6082141:

Columns and labels:
[1] = target: microtubules assembled from porcine brain tubulin (porcine) (UniProt P02550); assay: TIRF microscopy, fluorescence intensity on MTs
[2] = target: carboxypeptidase A (CPA)-treated microtubules from porcine brain tubulin (porcine) (UniProt P02550); assay: TIRF microscopy, fluorescence intensity on MTs
[3] = target: microtubules assembled from porcine brain tubulin (porcine) (UniProt P02550); assay: TIRF microscopy, MT-MT sliding assay
[4] = target: microtubules assembled from porcine brain tubulin (porcine) (UniProt P02550); assay: single-molecule TIRF microscopy

Row | integrated p150 intensity on the MT (minus background, per pixel) [1] [a.u.] | integrated p150 intensity on the MT (minus background, per pixel) [2] [a.u.] | lifetime (τ) of foci of two MT minus-ends brought into contact and held by DDB [3] [s] | dwell time at MT minus-ends, long population (τ2) [4] [s] | percent of incoming molecules that dwell at MT minus-ends with DDB clusters [4] [%] | percent of incoming molecules that dwell at bare (vacant) MT minus-ends [4] [%] | Substance
1 | 2950 | 1100 |  |  |  |  | TMR-labeled p150-SNAP (from UniProt Q14203-1 1-1278) (natural protein)
2 |  |  | 14.4 | 54.8 | 83 | 77 | dynein-dynactin-BicD2 co-complex (DDB) (from UniProt Q921C5 1-820; P38650 1-4644; P28023 1-1280)
